Laboratory results from the supplement of paper PMC9732359.
± gives the uncertainty stated by the source.

Assay: protein stability index of a GFP-peptide fusion (yeast GPS) (PSI 1-4); higher = more stable; sorted into four equal gates, so the index is relative within each strain
How it was run: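 The protein stability index of a peptide was calculated by multiplying its read frequency in each gate by that gate's number and adding the products. The peptides were tiled 17-residue stretches of yeast proteins, fused downstream of GFP on a Cherry-expressing plasmid and carried in yeast as a pooled library. Mid-log cultures in leucine-free medium were sorted into four equal gates by GFP/Cherry ratio, and each gate's plasmids were PCR-amplified and Illumina-sequenced.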

## QIISNAHNKPSLFSKIK [YAR002W/NUP60]
doa10∆
  protein stability index: 2.94 ± 0.088
pdr5∆
  protein stability index: 2.98 ± 0.093
san1∆
  protein stability index: 2.77 ± 0.071
ubr1∆
  protein stability index: 2.94 ± 0.058

## QIKEIKEVIELPVKHPE [RPT6]
doa10∆
  protein stability index: 2.98 ± 0.074
pdr5∆
  protein stability index: 3.13 ± 0.088
san1∆
  protein stability index: 3.27 ± 0.078
ubr1∆
  protein stability index: 3.2 ± 0.075

## QILIFAADTSIVEQDKS [YJL039C/NUP192]
doa10∆
  protein stability index: 2.04 ± 0.13
pdr5∆
  protein stability index: 2.44 ± 0.21
san1∆
  protein stability index: 2.45 ± 0.18
ubr1∆
  protein stability index: 2.54 ± 0.25

## QIMQLKKICNHPFVFEE [SNF2]
doa10∆
  protein stability index: 2.77 ± 0.075
pdr5∆
  protein stability index: 2.38 ± 0.053
san1∆
  protein stability index: 2.53 ± 0.063
ubr1∆
  protein stability index: 2.55 ± 0.059

## QITIEPGVDVEVVVASN [RPS20]
doa10∆
  protein stability index: 2.53 ± 0.061
pdr5∆
  protein stability index: 2.57 ± 0.099
san1∆
  protein stability index: 3.01 ± 0.098
ubr1∆
  protein stability index: 2.51 ± 0.066

## QKKILSIRLKVPPTIAQ [RPL8A]
doa10∆
  protein stability index: 1.53 ± 0.037
pdr5∆
  protein stability index: 1.66 ± 0.037
san1∆
  protein stability index: 1.5 ± 0.06
ubr1∆
  protein stability index: 1.69 ± 0.029

## QKKNFLFKPLNKTLTLD [ARP7]
doa10∆
  protein stability index: 2.83 ± 0.093
pdr5∆
  protein stability index: 2.45 ± 0.14
san1∆
  protein stability index: 2.08 ± 0.25
ubr1∆
  protein stability index: 1.89 ± 0.26

## QKKRVVDPFTRKEWFDI [RPS1A]
doa10∆
  protein stability index: 2.77 ± 0.15
pdr5∆
  protein stability index: 3.1 ± 0.18
san1∆
  protein stability index: 3.03 ± 0.08
ubr1∆
  protein stability index: 3.13 ± 0.13

## QKLDILVAKLKKVKSAS [SMC4]
doa10∆
  protein stability index: 2.64 ± 0.076
pdr5∆
  protein stability index: 2.25 ± 0.051
san1∆
  protein stability index: 2.61 ± 0.071
ubr1∆
  protein stability index: 2.73 ± 0.045

## QKLHKVKKASGEIVSIN [RPL20A]
doa10∆
  protein stability index: 2.98 ± 0.076
pdr5∆
  protein stability index: 2.61 ± 0.057
san1∆
  protein stability index: 3.07 ± 0.042
ubr1∆
  protein stability index: 2.8 ± 0.056

## QKNYADPEKDSINATAL [SIN4]
doa10∆
  protein stability index: 1.9 ± 0.042
pdr5∆
  protein stability index: 1.71 ± 0.047
san1∆
  protein stability index: 1.61 ± 0.087
ubr1∆
  protein stability index: 1.59 ± 0.032

## QKSSKENIENEEYVINL [ECM29]
doa10∆
  protein stability index: 3.02 ± 0.1
pdr5∆
  protein stability index: 3.32 ± 0.086
san1∆
  protein stability index: 2.75 ± 0.082
ubr1∆
  protein stability index: 3.02 ± 0.082

## QKTVFDELCKLVTCEGS [SRP54]
doa10∆
  protein stability index: 1.19 ± 0.1
pdr5∆
  protein stability index: 1.48 ± 0.091
san1∆
  protein stability index: 1.25 ± 0.18
ubr1∆
  protein stability index: 1.14 ± 0.086

## QKVFVRSRNGGATKIVR [DIS3]
doa10∆
  protein stability index: 2.33 ± 0.085
pdr5∆
  protein stability index: 1.59 ± 0.11
san1∆
  protein stability index: 2.88 ± 0.1
ubr1∆
  protein stability index: 2.45 ± 0.21

## QLDSDANKLSKSHSTVS [ISW2]
doa10∆
  protein stability index: 3.04 ± 0.063
pdr5∆
  protein stability index: 2.85 ± 0.075
san1∆
  protein stability index: 3 ± 0.13
ubr1∆
  protein stability index: 3.06 ± 0.074

## QLEGFESRKAFFLGYMI [RPB2]
doa10∆
  protein stability index: 1.22 ± 0.088
pdr5∆
  protein stability index: 2.42 ± 0.075
san1∆
  protein stability index: 1.41 ± 0.079
ubr1∆
  protein stability index: 2.49 ± 0.045

## QLEYKRGEIREIEQVCK [MED7]
doa10∆
  protein stability index: 1.49 ± 0.11
pdr5∆
  protein stability index: 1.53 ± 0.069
san1∆
  protein stability index: 2.2 ± 0.18
ubr1∆
  protein stability index: 1.45 ± 0.07

## QLGPQTPAFNTAILQRQ [ECM29]
doa10∆
  protein stability index: 1.39 ± 0.21
pdr5∆
  protein stability index: 1.49 ± 0.17
san1∆
  protein stability index: 1.41 ± 0.17
ubr1∆
  protein stability index: 1.67 ± 0.21

## QLIKVAVHNGDRKHVAA [RPL9B]
doa10∆
  protein stability index: 2.09 ± 0.054
pdr5∆
  protein stability index: 2.48 ± 0.059
san1∆
  protein stability index: 2.28 ± 0.061
ubr1∆
  protein stability index: 2.65 ± 0.027

## QLILSDVDPEFYLKYVD [RET1]
doa10∆
  protein stability index: 3.25 ± 0.23
pdr5∆
  protein stability index: 2.95 ± 0.15
san1∆
  protein stability index: 2.72 ± 0.12
ubr1∆
  protein stability index: 2.92 ± 0.12

## QLKFEGFALNSDIVFIH [BRR2]
doa10∆
  protein stability index: 1.87 ± 0.064
pdr5∆
  protein stability index: 1.71 ± 0.061
san1∆
  protein stability index: 2.06 ± 0.065
ubr1∆
  protein stability index: 1.81 ± 0.036

## QLKTGLAAIVSTVIEEF [YGL172W/NUP49]
doa10∆
  protein stability index: 2.93 ± 0.094
pdr5∆
  protein stability index: 2.79 ± 0.08
san1∆
  protein stability index: 2.83 ± 0.1
ubr1∆
  protein stability index: 3.04 ± 0.076

## QLKWAQNTIDDTEMKMK [YIL149C/MLP2]
doa10∆
  protein stability index: 2.15 ± 0.046
pdr5∆
  protein stability index: 2.88 ± 0.056
san1∆
  protein stability index: 2.71 ± 0.059
ubr1∆
  protein stability index: 2.74 ± 0.059

## QLNCIDTQFTKLLDDNP [SRB8]
doa10∆
  protein stability index: 2.44 ± 0.074
pdr5∆
  protein stability index: 2.7 ± 0.068
san1∆
  protein stability index: 2.57 ± 0.065
ubr1∆
  protein stability index: 2.9 ± 0.048

## QLNKVVDQLFEKASVLY [RPN6]
doa10∆
  protein stability index: 2.55 ± 0.051
pdr5∆
  protein stability index: 2.06 ± 0.052
san1∆
  protein stability index: 2.62 ± 0.05
ubr1∆
  protein stability index: 2.43 ± 0.055

## QLPSKFTCSCNSLTVDG [RPN14]
doa10∆
  protein stability index: 2.2 ± 0.06
pdr5∆
  protein stability index: 2.39 ± 0.062
san1∆
  protein stability index: 2.17 ± 0.052
ubr1∆
  protein stability index: 2.17 ± 0.036

## QLVEITEQIKMRILSND [SRB8]
doa10∆
  protein stability index: 2.49 ± 0.045
pdr5∆
  protein stability index: 2.45 ± 0.043
san1∆
  protein stability index: 2.44 ± 0.043
ubr1∆
  protein stability index: 2.48 ± 0.034

## QLYEDLCRYEDTLSKLV [MED4]
doa10∆
  protein stability index: 2.62 ± 0.097
pdr5∆
  protein stability index: 2.67 ± 0.16
san1∆
  protein stability index: 2.75 ± 0.27
ubr1∆
  protein stability index: 3.25 ± 0.09

## QMDGFDNLGQTKIIMAT [RPT4]
doa10∆
  protein stability index: 3.54 ± 0.091
pdr5∆
  protein stability index: 3.55 ± 0.11
san1∆
  protein stability index: 3.66 ± 0.082
ubr1∆
  protein stability index: 3.48 ± 0.098

## QMPLNSNGGNNMLPQRQ [SNF2]
doa10∆
  protein stability index: 2.41 ± 0.047
pdr5∆
  protein stability index: 2.79 ± 0.053
san1∆
  protein stability index: 2.39 ± 0.064
ubr1∆
  protein stability index: 2.54 ± 0.043

## QNCWSLINDSYINDVHL [SSN8]
doa10∆
  protein stability index: 3.35 ± 0.063
pdr5∆
  protein stability index: 3.22 ± 0.069
san1∆
  protein stability index: 3.34 ± 0.054
ubr1∆
  protein stability index: 3.23 ± 0.055

## QNDTPMFKLGNFESPVL [YLR018C/POM34]
doa10∆
  protein stability index: 2.08 ± 0.066
pdr5∆
  protein stability index: 2.48 ± 0.059
san1∆
  protein stability index: 2.62 ± 0.05
ubr1∆
  protein stability index: 2.29 ± 0.034

## QNKKNLKWVAVVPDLGH [SSN2]
doa10∆
  protein stability index: 2.67 ± 0.085
pdr5∆
  protein stability index: 3.07 ± 0.051
san1∆
  protein stability index: 2.81 ± 0.07
ubr1∆
  protein stability index: 3.02 ± 0.1

## QNNFHVLIDLLNWFRTT [RGR1]
doa10∆
  protein stability index: 1.99 ± 0.064
pdr5∆
  protein stability index: 2.17 ± 0.074
san1∆
  protein stability index: 2.67 ± 0.053
ubr1∆
  protein stability index: 2.47 ± 0.09

## QNNTTKFHSELQYLDKH [RPN12]
doa10∆
  protein stability index: 2.81 ± 0.1
pdr5∆
  protein stability index: 3 ± 0.095
san1∆
  protein stability index: 2.39 ± 0.26
ubr1∆
  protein stability index: 3.17 ± 0.061

## QNPKLFQTIFSKQDLIH [SIN4]
doa10∆
  protein stability index: 2.43 ± 0.058
pdr5∆
  protein stability index: 2.02 ± 0.046
san1∆
  protein stability index: 2.02 ± 0.085
ubr1∆
  protein stability index: 2.02 ± 0.051

## QNPLPTRFEVELEFIQS [SOH1]
doa10∆
  protein stability index: 2.38 ± 0.083
pdr5∆
  protein stability index: 2.39 ± 0.073
san1∆
  protein stability index: 2.29 ± 0.084
ubr1∆
  protein stability index: 2.83 ± 0.078

## QNVTSETHSKKRKKEAN [ITC1]
doa10∆
  protein stability index: 2.92 ± 0.075
pdr5∆
  protein stability index: 3.02 ± 0.075
san1∆
  protein stability index: 2.94 ± 0.041
ubr1∆
  protein stability index: 3.08 ± 0.073

## QPGYADLEHKEDCVEEF [QCR6]
doa10∆
  protein stability index: 2.42 ± 0.058
pdr5∆
  protein stability index: 2.56 ± 0.068
san1∆
  protein stability index: 2.52 ± 0.074
ubr1∆
  protein stability index: 2.68 ± 0.044

## QPKAPRAPKVIHGQDFQ [ISW2]
doa10∆
  protein stability index: 2.88 ± 0.089
pdr5∆
  protein stability index: 3.02 ± 0.097
san1∆
  protein stability index: 2.94 ± 0.05
ubr1∆
  protein stability index: 3.19 ± 0.058

## QPQETEEHHEEEPSRVD [RPT4]
doa10∆
  protein stability index: 3.56 ± 0.064
pdr5∆
  protein stability index: 3.44 ± 0.1
san1∆
  protein stability index: 3.23 ± 0.074
ubr1∆
  protein stability index: 3.22 ± 0.086

## QPSKVSSNVQQPQQQLG [RTT102]
doa10∆
  protein stability index: 2.82 ± 0.081
pdr5∆
  protein stability index: 2.88 ± 0.094
san1∆
  protein stability index: 2.61 ± 0.082
ubr1∆
  protein stability index: 3.03 ± 0.1

## QPTNFTTKRLWSEITES [MCD1]
doa10∆
  protein stability index: 1.99 ± 0.088
pdr5∆
  protein stability index: 2.38 ± 0.066
san1∆
  protein stability index: 2.04 ± 0.089
ubr1∆
  protein stability index: 2.04 ± 0.09

## QPYEDRPFEGLFVISTE [RRP45]
doa10∆
  protein stability index: 2.96 ± 0.052
pdr5∆
  protein stability index: 3.12 ± 0.048
san1∆
  protein stability index: 3.11 ± 0.048
ubr1∆
  protein stability index: 3.05 ± 0.038

## QQIWKSPNFKNYLKYLE [SOH1]
doa10∆
  protein stability index: 1.72 ± 0.047
pdr5∆
  protein stability index: 1.91 ± 0.047
san1∆
  protein stability index: 1.61 ± 0.047
ubr1∆
  protein stability index: 2.22 ± 0.062

## QQLNKQRQDFERVRLRP [SNF6]
doa10∆
  protein stability index: 2.85 ± 0.062
pdr5∆
  protein stability index: 2.73 ± 0.079
san1∆
  protein stability index: 2.75 ± 0.069
ubr1∆
  protein stability index: 2.79 ± 0.045

## QQMIITRLKSLLKPFHV [SIR3]
doa10∆
  protein stability index: 2.17 ± 0.07
pdr5∆
  protein stability index: 2.08 ± 0.053
san1∆
  protein stability index: 2 ± 0.073
ubr1∆
  protein stability index: 1.99 ± 0.035

## QQMQPPNSSANNNPLQQ [GAL11]
doa10∆
  protein stability index: 3.02 ± 0.055
pdr5∆
  protein stability index: 2.9 ± 0.05
san1∆
  protein stability index: 2.89 ± 0.041
ubr1∆
  protein stability index: 2.95 ± 0.048

## QQQLRNQIQRQQQQQFR [SNF5]
doa10∆
  protein stability index: 1.43 ± 0.18
san1∆
  protein stability index: 1.4 ± 0.21
ubr1∆
  protein stability index: 1.55 ± 0.061

## QQQQMQQQQQQQQQQQN [SSN2]
doa10∆
  protein stability index: 2.31 ± 0.11
pdr5∆
  protein stability index: 2.63 ± 0.098
san1∆
  protein stability index: 2.8 ± 0.18
ubr1∆
  protein stability index: 2.83 ± 0.1
